± gives the uncertainty stated by the source.
Assay: amyloid nucleation score (Sup35N fusion, yeast selection) (log enrichment); library NNK1; higher = more nucleation; inactive = no reads after selection
Summary of the method: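 The nucleation score is the DiMSum log enrichment of output over input reads, centred on the mode score of non-aggregating sequences. Only sequences with 100 or more input reads were scored, using Illumina sequencing of input and output plasmid inserts. Psi-negative yeast expressing Sup35N fused to peptides of 20 random codons were induced 24 hours with 100 μM copper sulfate and grown 7 days at 30°C on medium lacking adenine and uracil.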

Substance | amyloid nucleation score
TLNQHY | 0.025 ± 0.55
FWPCFSWYC | 2.16 ± 0.15
RLFNTAQGSHSWH | 1.56 ± 0.71
LNTFTVLMLWMLLQNVAFIL | -1.37 ± 2.1
VILSARSFMTIHGHYCTYRV | 0.474 ± 0.88
WHSISYF | inactive
ECVTCSWF | 0.011 ± 0.38
NFRNSLRSV | 1.24 ± 0.59
GQDAPEDAMSVRRILVSGLA | -0.109 ± 1.5
CFIGANPLRNQWMRSTRIVP | 0.28 ± 0.61
CNILVTRFSNSREFNRCTWR | inactive
VVRWSFDNAYSSSLDNLIVI | -0.209 ± 0.34
FRFELYRLPVSDSLMKDLQL | 0.998 ± 0.58
YTWMSIEIY | 1.71 ± 0.4
WGTLVIGCFVHTVNLHNRKR | 6.809 ± 0.048
TTFFFDF | 2.59 ± 0.18
GVCVNVKLLNWFKSRGTSSR | 1.91 ± 0.38
CQYVCRDNFDYQTSSSCGCD | inactive
DRFVVVLCFTDQ | 0.452 ± 0.46
YKSISSDSAKWFVMGLNGLV | -1.6 ± 1.1
MYRQTEGLVRFKGRGPFKVE | 0.355 ± 0.4
NLWSGFLRFKFSCGRIDGIL | -0.622 ± 0.41

Substance | amyloid nucleation score
NCLDGGMFRYIKVYRSRYSS | 0.209 ± 0.2
RVYENNIY | -1.05 ± 1.7
YKTYMFYCTSFQSGPCSRLI | -0.634 ± 0.35
FSNTCWNLKYHSNGAANFFV | 0.136 ± 0.96
VCRKRCERQLKPL | 0.241 ± 0.24
MWWCGSHSFSFYFRLRSDWR | 0.829 ± 1
SGFRVKQYMFLCFY | -0.473 ± 0.73
QSTMIASMRYSFFACAVLYI | 0.074 ± 0.51
CDKGPGCWVRMKQPGRLQMG | 3.46 ± 0.076
HVTKMNCPLCQVKLGNYPVY | -0.546 ± 0.49
LDVKSYAQVKRFSWSHSAFM | 1.07 ± 0.4
MGIHIFSGRSCTIFLLPSLY | -0.582 ± 1.2
FMYWSIHDTIVLTWHDGSSL | -0.036 ± 0.65
SNSLLQGVTIWPNYPLCGNL | 0.464 ± 0.53
TGSMVFLMVVAGSCLFGLSE | 0.652 ± 0.24
PQVVRRGTHKVGRDNG | 0.186 ± 1.6
SCTWYKFWRKSIAMILAILS | 0.169 ± 0.9
ILSGVFLIRIEAKSNK | -0.179 ± 1.2
GSRYLGTPFRDIMLHVAIRW | 1.08 ± 0.57
SKNHSFDSYVMTVYFHHCGK | -0.291 ± 0.4
LLSLNEMYMTLMGGTVPRVG | -0.076 ± 0.56
NRVSFYATTNFSISRFGSWG | inactive

Substance | amyloid nucleation score
FLLGRNFNLANSNFHSVICL | 0.24 ± 0.88
KFIEMRRNKSPKHLPAWASD | 0.911 ± 0.54
IHWNWWIRLCGFPFAFYISG | 0.233 ± 0.32
VVDLVHVCSFFTFYVCATLL | 1.66 ± 0.6
SRGVAALYSSNI | -0.278 ± 0.35
LLVSTVRVNGQI | -0.016 ± 0.42
NKNTS | -0.45 ± 0.54
KAFLTRRFLNLYVRIKPYMV | -0.503 ± 0.3
AYFMDASFNVFIDISFGGGL | 8.115 ± 0.046
MVSNAGDIPMRRLESLRLLR | 0.748 ± 0.53
VFILALVELFGVQWLVVYNW | -0.42 ± 0.47
ALKFPMWDSVEYGDCVGSLI | inactive
WTRSFRAFGSSVYWEGRGNH | 1.22 ± 0.26
TRRHKYFEWD | -0.285 ± 0.8
STWIHQMRSMASAENFSCYS | -1.27 ± 0.63
AAVLGFCSWNLRRRIMEF | -0.864 ± 1.4
RMLIYVQFTRRDKVSNPLM | -0.685 ± 0.33
QFCMKSTPMSHFR | -0.772 ± 0.61
IYYMYYLYHYWMILRENDFM | 0.151 ± 0.21
SQCLMKGHCKT | 0.286 ± 0.66
TRLSMLIYALTGNVMSGSCV | 0.505 ± 0.46
VFYACSTPRPSQNASVDFRL | -0.035 ± 0.61

Substance | amyloid nucleation score
DSELRMVISLYFCWLWSEWS | -0.623 ± 0.6
WPRNFYFMFRCLGMAAREMC | 0.285 ± 0.63
PLWAPNSSNFAINRNQWRFN | 0.11 ± 0.57
FASARQLMQTTDKHSVWYVV | -1.87 ± 1.8
TGCCFYVSDHF | 7.88 ± 0.071
SKIGDEM | -1.29 ± 1.2
CEFGSGQALIYGYTMYTWTT | 0.703 ± 0.49
VCVNSENHNFT | inactive
SYDSRNASLVIIISWVMQPL | 0.992 ± 0.16
KQFDTSGLNVRRSCNRSRHM | 0.301 ± 0.56
GHLNQCGLNL | -0.136 ± 0.38
CPYRYYHTNLFMVIFLYRGM | -0.349 ± 0.47
VPLVVNRDARH | 1.26 ± 0.59
GLNLRCSNTREGKVWNRTW | -0.37 ± 0.47
GFKPWVVCWTWQAAPKVRSP | 0.702 ± 0.73
VLTVRLTMLDCHLAAFSSNA | 1.66 ± 0.16
CWDFISCSGQVVNGWSKDSS | -0.008 ± 0.42
ALLESGCWSMWFVSFRFELA | -0.119 ± 0.76
RNQKGIL | -0.042 ± 0.23
YNWYPEWLCYIFRTKQVVGT | 0.382 ± 0.45

Reference: the supplement of paper PMC12042874
